Results on 12 sequences are retold here after the Immune Epitope Database (IEDB).

pKd: −log10 of the molar value. Where only a bound is given, the exact number is not on record here.

Experiment [1] has as its target HLA-B*27:05. Nature of the experiment: IEDB peptide-MHC binding, purified MHC/competitive/fluorescence; filed as Kd, often an IC50 or EC50 that approximates it; ≥ and ≤ were set here for values at or beyond the usual limits of such assays.
Experiment [2] concerns the target HLA-A*02:01. Description: IEDB peptide-MHC binding, purified MHC/direct/fluorescence; filed as Kd, often an IC50 or EC50 that approximates it; ≥ and ≤ were set here for values at or beyond the usual limits of such assays.
The target of experiment [3] is HLA-A*02:12. Described as above. As to conditions: source organism: Ravn virus - Ravn, Kenya, 1987.
Experiment [4] deals with HLA-A*29:02. Described as above. As to conditions: source organism: Ravn virus - Ravn, Kenya, 1987.
Experiment [5] has as its target HLA-A*30:01. Described as above.
The target of experiment [6] is HLA-A*69:01. The description is as above.
Experiment [7] deals with HLA-B*07:02. Described as above.
Experiment [8] deals with HLA-B*15:01. The description is as above.
Experiment [9] has as its target HLA-B*15:17. The experiment is described as above. Particulars: source organism: Ravn virus - Ravn, Kenya, 1987.
Experiment [10] has as its target HLA-B*18:01. The experiment is described as above. Particulars: source organism: Ravn virus - Ravn, Kenya, 1987.
Experiment [11] addresses HLA-B*40:01. Described as above.
Experiment [12] addresses HLA-B*44:02. Described as above. Particulars: source organism: Ravn virus - Ravn, Kenya, 1987.
Experiment [13] concerns the target HLA-B*51:01. The description is as above. As to conditions: source organism: Ravn virus - Ravn, Kenya, 1987.
The target of experiment [14] is HLA-B*57:01. The experiment is described as above. As to conditions: source organism: Ravn virus - Ravn, Kenya, 1987.
The target in experiment [15] is HLA-B*58:01. Described as above.
Experiment [16] concerns the target HLA-A*02:01. Nature of the experiment: IEDB peptide-MHC binding, purified MHC/competitive/fluorescence; filed as Kd, often an IC50 or EC50 that approximates it; ≥ and ≤ were set here for values at or beyond the usual limits of such assays.
In experiment [17] the target is HLA-A*02:06. Described as above.
Experiment [18] concerns the target HLA-A*01:01. Description: IEDB peptide-MHC binding, purified MHC/direct/fluorescence; filed as Kd, often an IC50 or EC50 that approximates it; ≥ and ≤ were set here for values at or beyond the usual limits of such assays.
For experiment [19], the target named is HLA-A*03:01. Described as above.
Experiment [20] concerns the target HLA-A*11:01. Described as above.
Experiment [21] has as its target HLA-A*24:03. The experiment is described as above.
Experiment [22] deals with HLA-A*26:01. The experiment is described as above.
The target in experiment [23] is HLA-A*31:01. The description is as above.
Experiment [24] deals with HLA-B*08:01. Described as above.
In experiment [25] the target is HLA-B*27:05. The description is as above.
For experiment [26], the target named is HLA-B*35:01. Described as above.
Experiment [27] addresses HLA-A*24:02. Description: IEDB peptide-MHC binding, purified MHC/competitive/fluorescence; filed as Kd, often an IC50 or EC50 that approximates it; ≥ and ≤ were set here for values at or beyond the usual limits of such assays.
For experiment [28], the target named is HLA-A*01:01. The description is as above. As to conditions: source organism: Human immunodeficiency virus 1.
Experiment [29] deals with HLA-A*02:03. The description is as above. Particulars: source organism: Human immunodeficiency virus 1.
For experiment [30], the target named is HLA-A*11:01. Described as above. Particulars: source organism: Human immunodeficiency virus 1.
Experiment [31] concerns the target HLA-A*30:01. Described as above. As to conditions: source organism: Human immunodeficiency virus 1.
Experiment [32] deals with HLA-B*15:01. Described as above. As to conditions: source organism: Human immunodeficiency virus 1.
Experiment [33] has as its target HLA-B*15:17. The description is as above. Particulars: source organism: Human immunodeficiency virus 1.
For experiment [34], the target named is HLA-B*18:01. The experiment is described as above. As to conditions: source organism: Human immunodeficiency virus 1.
Experiment [35] concerns the target HLA-B*57:01. The description is as above. Particulars: source organism: Human immunodeficiency virus 1.
The mark [36] stands for this setting: source organism: Marburg virus - Musoke, Kenya, 1980.
Where [37] appears, read: source organism: Ravn virus - Ravn, Kenya, 1987.
Setting [38] is: source organism: Shigella boydii Sb227.
Where [39] appears, read: source organism: Escherichia coli.
The mark [40] stands for this setting: source organism: Corynebacterium glutamicum.
Where [41] appears, read: source organism: Giardia lamblia ATCC 50803.

As to GRQAPTADV, the pKd (commonly the negative decadic logarithm of the Kd, by convention in mol/L) in [1] (source organism: Escherichia coli str. K-12 substr. MG1655) was 6.55.
As to NLFDWMHFL, the pKd in experiment [2] (setting [36]) is at least 9.00; in experiment [3], 8.22; in [4], 5.62; in experiment [5] (setting [37]), at most 4.70; in experiment [6] (setting [36]), 8.60; in experiment [7] (setting [37]), at most 4.70. Besides, the pKd in experiment [8] (setting [37]), in experiment [9], in experiment [10], in [11] (setting [37]), in experiment [12] and in experiment [13] was at most 4.70 throughout. Besides, the pKd in experiment [14] and in [15] (setting [37]) was at most 4.70 throughout.
Turning to GLDDSALDA, the pKd in experiment [16] (setting [38]) is 6.40; in experiment [17] (setting [38]) it was 5.68.
On to LAAPCRNAL, for which the negative-log Kd (pKd) in experiment [18] (setting [39]) is at most 4.70; in [2] (setting [39]), at most 4.70; in experiment [19] (setting [39]), at most 4.70; in experiment [20] (setting [39]), at most 4.70; in experiment [21] (setting [39]), at most 5.30; in [22] (setting [39]) it was at most 4.70. The negative-log Kd (pKd) is at most 5.00 in experiment [5] (setting [39]); at most 4.70 in experiment [23] (setting [39]); at most 4.70 in experiment [6] (setting [39]); 7.56 in experiment [7] (setting [39]); 6.07 in [24] (setting [39]); 5.43 in [8] (setting [39]). For the same sequence, the pKd in experiment [25] (setting [39]) is at most 4.70; in experiment [26] (setting [39]), 7.59; in [11] (setting [39]) it was at most 4.70; in [15] (setting [39]), at most 4.70.
Turning to PYPYLFYKF, in experiment [27] (source organism: Vibrio cholerae B33), the pKd is at least 10.00.
On to KSLYNTVAVLY, for which the negative logarithm of the Kd (pKd) is 5.35 in experiment [28]; at most 4.70 in [29]; 6.52 in [17] (source organism: Human immunodeficiency virus 1); at most 4.70 in experiment [30]; 5.32 in [31]; at most 4.70 in [32]. In addition, the negative logarithm of the Kd (pKd) in experiment [33] is 6.32; in experiment [34], 6.56; in [35], 5.32.
As for GRADTKILF, in [1] (source organism: Influenza A virus (A/swine/Hong Kong/4/1976(H3N2))), the negative-log Kd (pKd) was 7.13.
On to IVAWTRTAT, for which the pKd was at most 4.70 in experiment [18] (setting [40]); at most 4.70 in [2] (setting [40]); at most 4.70 in experiment [19] (setting [40]); at most 4.70 in experiment [20] (setting [40]); 4.88 in [21] (setting [40]); at most 4.70 in experiment [22] (setting [40]). Further, the negative-log Kd (pKd) in experiment [5] (setting [40]) was at most 5.00; in [23] (setting [40]), at most 4.70; in experiment [6] (setting [40]), at most 4.70; in experiment [7] (setting [40]), 7.27; in experiment [24] (setting [40]), 5.57; in experiment [8] (setting [40]), at most 4.70. Also, the pKd in experiment [25] (setting [40]) was at most 4.70; in experiment [26] (setting [40]), 6.05; in experiment [11] (setting [40]), at most 4.70; in [15] (setting [40]), at most 4.70.
With EYARQVQMI, the pKd in [27] (source organism: Vibrio vulnificus YJ016) is at least 9.00.
IYNTVVLTI: in experiment [27] (source organism: Vibrio parahaemolyticus AQ3810), the negative logarithm of the Kd (pKd) is 9.40.
In the case of RQVCFFSAT, the results for the pKd in experiment [16] (setting [41]) and in experiment [17] (setting [41]) were 5.49 and 8.20, respectively.
The sequence IYLRRYFEI had a pKd in experiment [27] (source organism: Escherichia coli E22) of at least 10.00.
